US11896644B2, “Inhibition of beta-arrestin oligomerization in tauopathy” (UNIVERSITY OF SOUTH FLORIDA, priority 2020, dated 2024)

Tests used:
β-arrestin2 oligomers = β-arrestin2 oligomers (Rattus norvegicus, UniProt P29067); details: BRET and co-immunoprecipitation; cited from earlier work
GFP-p62 puncta = GFP-p62 puncta in Hela-V5-tau cells with/without bafilomycin A; type: cell-based; details: steady-state
Description: Data are shown as box plots or mean±SEM.
Given the effects on p62 autophagy flux, whether β-arrestin2 physically interacts with p62 was tested. […] Given that β-arrestin2 oligomeric mutants, ΔIP6C and ΔIP6N, reduced tau aggregates by slowing tau turnover, next tested was whether β-arrestin2 ΔIP6C and ΔIP6N mutants affect p62 self-association by a proximity ligation assays (PLA) as well as co-IP. […] Recent studies have shown that purified recombinant p62 spontaneously forms globular oligomers (Zaffagnini G, et al. (2018) EMBO J 37(5)). To test whether β-arrestin2 can directly affect p62 oligomerization in vitro, purified recombinant p62, β-arrestin2, and p62 mixed with β-arrestin2 with atomic force microscopy were visualized. Recombinant p62 spontaneously formed visible globular particles between 5-100 nm in diameter (FIG. 5K), whereas only very few small β-arrestin2 particles were visible under identical conditions (FIG. 5K). […] Next tested was whether β-arrestin2 oligomerization is required for bafilomycin A-induced p62 puncta formation. As expected, GFP-p62 puncta were increased upon bafilomycin A treatment in control vector transfected cells (FIGS. 5M,5N).

activated GPCRs = details: cited from earlier work
[1] = system: tau in tau P301S cortical primary neurons; assay: Tau immunoblot of DIV18 tau P301S cortical primary neurons transduced with β-arrestin2 mutant lentivirus; type: cell-based, mice; details: DIV 18 tau P301S cortical primary neurons
Description: FIGS. 4A to 4E show β-arrestin2 oligomerization is required for suppressing tau turnover. […] Data are shown as box plots or mean±SEM.
Primary mouse hippocampal and cortical neuronal cultures were previously described (Woo J A, et al. (2019) Commun Biol 2:112; Woo J A, et al. (2017) Hum Mol Genet 26(20):3973-3988; Woo J A, et al. (2015) Cell Death Differ 22(6):1069-1070). Briefly, primary neurons were prepared from P0 mice. Both hippocampus and cortex were dissected separately in HBSS and digested with trypsin. Neurons were plated on glass coverslips coated with poly-D-lysine (Sigma-Aldrich, St Louis, MO, USA) and maintained in neurobasal medium with glutamax (Invitrogen, Carlsbad, CA, USA) and B27 supplement (Invitrogen, Carlsbad, CA, USA). […]
When DIV 18 tau P301S cortical primary neurons were transduced with either β-arrestin2 ΔIP6C or ΔIP6N lentivirus, an approximately 50% reduction in tau compared to control was evident (FIGS. 4A,4B), which represents a key finding relevant to both mechanism of action and potential therapeutic strategies. […] To determine whether β-arrestin2 oligomerization status alters tau aggregation itself, filter-trap assays were performed from Hela-V5-tau cells transfected with β-arrestin2 variants, in which tau aggregates from detergent-soluble and-insoluble lysates were captured by cellulose acetate membranes and assessed by immunoblotting.

[2] = molecular target: T1, βarrestin1 homo-oligomers (Homo sapiens, UniProt P49407); assay: PLA for βarrestin1 homo-oligomers in HeLa-V5-tau cells; type: cell-based
T1 construct: expressed in transfected cells; host or cells: HeLa-V5-tau cells
T1 sequence (P49407 whole entry): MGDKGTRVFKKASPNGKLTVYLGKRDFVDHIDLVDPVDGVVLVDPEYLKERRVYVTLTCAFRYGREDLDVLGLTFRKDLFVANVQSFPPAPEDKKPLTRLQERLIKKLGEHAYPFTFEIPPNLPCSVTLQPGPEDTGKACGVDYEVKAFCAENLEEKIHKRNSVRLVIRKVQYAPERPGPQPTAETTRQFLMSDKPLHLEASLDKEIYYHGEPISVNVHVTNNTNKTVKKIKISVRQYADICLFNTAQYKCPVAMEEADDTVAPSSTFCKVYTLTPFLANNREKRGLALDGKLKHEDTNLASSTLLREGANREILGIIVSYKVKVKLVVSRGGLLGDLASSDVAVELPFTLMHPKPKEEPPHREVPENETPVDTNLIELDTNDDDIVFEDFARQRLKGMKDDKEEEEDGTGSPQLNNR
T1 sequence (P49407 whole entry): as above
Source text: (§1) FIGS. 24A to 24D show β-arrestin2 oligomerization mutants impair β-arrestin1 homo-oligomers and β-arrestin1/β-arrestin2 hetero-oligomers. HeLa-V5-tau cells were co-transfected with vector control or β-arrestin2 oligomerization mutants (ΔIP6C or ΔIP6N) together with βarrestin1-GFP+βarrestin1-myc or βarrestin2-myc. Cells were then subjected to proximity ligation assay (PLA) using antibodies against GFP and mycto detect βarrestin1 homo-oligomers (FIGS. 24A,24B) and βarrestin1/βarrestin2 hetero-oligomers and DAPI staining (FIGS. 24C,24D) (puncta).

[3] = molecular target: T2, βarrestin1/βarrestin2 hetero-oligomers (UniProt P29067+P49407); assay: PLA for βarrestin1/βarrestin2 hetero-oligomers in HeLa-V5-tau cells; type: cell-based
T2 construct: expressed in transfected cells; host or cells: HeLa-V5-tau cells
T2 sequence (P49407 whole entry): as above
T2 sequence (P29067 whole entry): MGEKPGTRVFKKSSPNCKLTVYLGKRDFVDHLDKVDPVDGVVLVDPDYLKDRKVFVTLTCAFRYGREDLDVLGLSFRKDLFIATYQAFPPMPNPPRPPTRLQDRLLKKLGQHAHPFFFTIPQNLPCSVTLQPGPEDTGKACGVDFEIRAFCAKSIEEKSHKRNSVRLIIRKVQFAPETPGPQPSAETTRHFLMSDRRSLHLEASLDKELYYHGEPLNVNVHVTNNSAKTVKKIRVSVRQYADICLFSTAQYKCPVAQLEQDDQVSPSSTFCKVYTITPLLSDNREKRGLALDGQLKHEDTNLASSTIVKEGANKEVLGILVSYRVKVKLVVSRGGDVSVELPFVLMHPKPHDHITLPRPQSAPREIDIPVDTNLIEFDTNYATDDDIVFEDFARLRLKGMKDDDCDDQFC
Source text: as §1

tau aggregates = assay: Filter-trap assay for tau aggregates from Hela-V5-tau cells; type: cell-based; details: vs control vector
Source text: FIGS. 11A to 11E show β-arrestin2 oligomerization mutants reduce tau aggregates. FIG. 11A contains representative confocal images of total tau in Hela-V5-tau cells transfected with YFP, YFP-β-arrestin2 ΔIP6C, or YFP-β-arrestin2 ΔIP6N (Scale bar=10 μm). FIG. 11B contains representative confocal images of proximity ligation assay (PLA) in Hela-V5-tau cells transfected with β-arrestin2-flag and β-arrestin2-myc with YFP control, YFP-β-arrestin2 ΔIP6C, or YFP-β-arrestin2 ΔIP6N.
When DIV 18 tau P301S cortical primary neurons were transduced with either β-arrestin2 ΔIP6C or ΔIP6N lentivirus, an approximately 50% reduction in tau compared to control was evident (FIGS. 4A,4B), which represents a key finding relevant to both mechanism of action and potential therapeutic strategies. […] Also investigated was whether β-arrestin2 oligomerization is required for slowing tau turnover by disrupting oligomerization using these mutants in several models. […] To determine whether β-arrestin2 oligomerization status alters tau aggregation itself, filter-trap assays were performed from Hela-V5-tau cells transfected with β-arrestin2 variants, in which tau aggregates from detergent-soluble and-insoluble lysates were captured by cellulose acetate membranes and assessed by immunoblotting.

β-arrestin2 oligomers, sequence (P29067 whole entry): as above

B1: β-arrestin2 ΔIP6N: β-arrestin2 N-terminal domain mutant (K158A, K161A, and R162A), incapable of forming oligomers; dominant negative (protein, UniProt P32121 1-409, looked up, variant K158A K161A R162A)
Beta-arrestin-2: MGEKPGTRVFKKSSPNCKLTVYLGKRDFVDHLDKVDPVDGVVLVDPDYLKDRKVFVTLTCAFRYGREDLDVLGLSFRKDLFIATYQAFPPVPNPPRPPTRLQDRLLRKLGQHAHPFFFTIPQNLPCSVTLQPGPEDTGKACGVDFEIRAFCAKSLEEASHAANSVRLVIRKVQFAPEKPGPQPSAETTRHFLMSDRSLHLEASLDKELYYHGEPLNVNVHVTNNSTKTVKKIKVSVRQYADICLFSTAQYKCPVAQLEQDDQVSPSSTFCKVYTITPLLSDNREKRGLALDGKLKHEDTNLASSTIVKEGANKEVLGILVSYRVKVKLVVSRGGDVSVELPFVLMHPKPHDHIPLPRPQSAAPETDVPVDTNLIEFDTNYATDDDIVFEDFARLRLKGMKDDDYDDQLC
modifications: GFP or YFP tag
notes: dominant negative
- oligomer formation (β-arrestin2 oligomers): incapable of forming oligomers
- GFP-p62 puncta (GFP-p62 puncta): increased GFP-p62 puncta at steady-state
- binding to activated GPCRs (activated GPCRs): bind to activated GPCRs with WT affinity
- reduction in tau compared to control [1]: approximately 50%
- βarrestin1 homo-oligomers (PLA puncta) [2]: significantly reduce
- βarrestin1/βarrestin2 hetero-oligomers (PLA puncta) [3]: significantly reduce
- tau aggregates in detergent-insoluble lysates (filter-trap) (tau aggregates): significantly reduced tau aggregates
